Reference: patent US20260022166A1 (JIANGSU HENGRUI MEDICINE, published 2026)
Numbering of substitutions follows the chain as printed. Each block holds one binder with its values, some of them ahead of it.

Legend:
[1] = target: T1, His-tagged human TSLP antigen (huTSLP-his) (human); experiment: ELISA, coated huTSLP-his
T1 construct: also called Human TSLP-his
Experimental: After discarding the liquid, 200 μl/well of blocking solution with 5% skimmed milk (Bright Dairy skimmed milk powder) diluted in PBS was added and incubated in a 37° C. incubator for 2 hours for blocking. After blocking was over, the blocking solution was discarded, and the plates were washed with PBST buffer (PBS containing 0.1% tween-20, pH 7.4) for 3 times. […] After incubation was over, the plates were washed with PBST for 3 times. […] After washing the plate with PBST for 6 times, 50 μl/well TMB chromogenic substrate (KPL, 52-00-03) was added and incubated at room temperature for 10-15 min, and 50 μl/well 1 M H₂SO₄ was added to stop the reaction. The absorption value was read by using a NOVOStar microplate reader at 450 nm.

[2] = target: native TSLP (human, UniProt Q969D9 29-159); experiment: cell-based or functional assay
[3] = target: Fc-tagged human TSLP antigen (huTSLP-Fc) (human); experiment: cell-based or functional assay

EC50 [1]: 0.344 nM
B1: hu119-13 (antibody, human IgG1, kappa, V domains shown)
VH: EVQLVQSGAEVKKPGSSVKVSCKASGFTFSTYNMHWVKHAPGQGLEWIGAIYPGNGETSYNQKFKDRATLTVDKSTSTAYMELSSLRSEDTAVYYCAREDDYGEGYFDVWGQGTTVTVSS
VL: EIVLTQSPATLSLSPGERATLSCRASESVDNSGLSFMHWYQQKPGQAPRLLIYRASNLGSGIPARFSGSGSGTDFTLTISSLEPEDFAVYYCQQINTDPLTFGQGTKLEIKR
notes: humanized, IgG1-YTE/kappa

EC50 [1]: 0.345 nM
B2: hu119-18 (antibody, human IgG1, kappa)
heavy: EVQLVQSGAEVKKPGSSVKVSCKASGFTFSTYNMHWVKHAPGQGLEWIGAIYPGNGETSYNQKFKDRATLTVDKSTSTAYMELSSLRSEDTAVYYCAREDDYGEGYFDVWGQGTTVTVSSASTKGPSVFPLAPSSKSTSGGTAALGCLVKDYFPEPVTVSWNSGALTSGVHTFPAVLQSSGLYSLSSVVTVPSSSLGTQTYICNVNHKPSNTKVDKKVEPKSCDKTHTCPPCPAPELLGGPSVFLFPPKPKDTLYITREPEVTCVVVDVSHEDPEVKFNWYVDGVEVHNAKTKPREEQYNSTYRVVSVLTVLHQDWLNGKEYKCKVSNKALPAPIEKTISKAKGQPREPQVYTLPPSRDELTKNQVSLTCLVKGFYPSDIAVEWESNGQPENNYKTTPPVLDSDGSFFLYSKLTVDKSRWQQGNVFSCSVMHEALHNHYTQKSLSLSPGK
light: EIVLTQSPATLSLSPGERATLSCRASESVDNSGLSFMHWYQQKPGQPPRLLLYRASNLGSGIPARFSGSGSGTDFTLTISSLEPEDFAVYYCQQINTDPLTFGQGTKLEIKRTVAAPSVFIFPPSDEQLKSGTASVVCLLNNFYPREAKVQWKVDNALQSGNSQESVTEQDSKDSTYSLSSTLTLSKADYEKHKVYACEVTHQGLSSPVTKSFNRGEC
notes: humanized, IgG1-YTE/kappa

IC50 of inhibiting the proliferation of BaF3-TLSPR/IL7R cells induced by native TSLP [2]: 1.53 nM
IC50 of inhibiting TSLP-induced proliferation of BaF3 cells overexpressing TSLPR/IL7R [3]: 0.43 nM
B3: hu119-30 (antibody, human IgG1, kappa, V domains shown)
VH: B1 VH with V2A, K38R, H39Q, S77R
VL: B1 VL with E1D, N31S, A47P, I52L

IC50 of inhibiting TSLP-induced proliferation of BaF3 cells overexpressing TSLPR/IL7R [3]: 0.573 nM
B4: AMG157 (antibody, human IgG2, lambda, V domains shown)
VH: QMQLVESGGGVVQPGRSLRLSCAASGFTFRTYGMHWVRQAPGKGLEWVAVIWYDGSNKHYADSVKGRFTITRDNSKNTLNLQMNSLRAEDTAVYYCARAPQWELVHEAFDIWGQGTMVTVSS
VL: SYVLTQPPSVSVAPGQTARITCGGNNLGSKSVHWYQQKPGQAPVLVVYDDSDRPSWIPERFSGSNSGNTATLTISRGEAGDEADYYCQVWDSSSDHVVFGGGTKLTVLG

IC50 of inhibiting the proliferation of BaF3-TLSPR/IL7R cells induced by native TSLP [2]: 0.289 nM
IC50 of inhibiting TSLP-induced proliferation of BaF3 cells overexpressing TSLPR/IL7R [3]: 0.444 nM
B5: hu3-13 (antibody, human IgG1, kappa, V domains shown)
VH: EVQLVQSGAEVKKPGASVKVSCKASGYTFTDDYMNWVRQAPGQRLEWMGIISPYNGGTSYNQKFKGRVTLTVDKSASTAYMELSSLRSEDTAVYYCAREDYDYDGYAMDYWGQGTTVTVSS
VL: EIVLTQSPATLSLSPGERATLSCRASSSVSYMHWYQQKPGQAPRPWIYATSNLASGVPARFSGSGSGTSYTLTISRLEPEDFAVYYCQQSDSGREFGGGTKVEIKR

IC50 of inhibiting TSLP-induced proliferation of BaF3 cells overexpressing TSLPR/IL7R [3]: 0.476 nM
B6: hu199-36 (antibody, human IgG1, kappa, V domains shown)
VH: EVQLVQSGAEVKKPGASVKVSCKASGYTFTTYWMHWVKQAPGQGLEWMGMIDPSDSETTLIQKFKDKVTLTVDKSTSTAYMELSSLRSEDTAVYYCARTLDGYYDYWGQGTTVTVSS
VL: DIQMTQSPSSLSASVGDRVTITCRASENIYSYLAWYQQKPGKSPQLLVYFAKTLAEGVPSRFSGSVSGTQFTLTISSLQPEDFATYYCQHHYGTPWTFGGGTKVEIKR

EC50 [1]: 0.159 nM
B7: hu119-03 (antibody, human IgG1, kappa)
heavy: B2 heavy
light: DIVMTQSPDSLAVSLGERATINCRASESVDNSGLSFMHWYQQKPGQPPKLLIYRASNLGSGVPDRFSGSGSGTDFTLTISSLQAEDVAVYYCQQINTDPLTFGQGTKLEIKRTVAAPSVFIFPPSDEQLKSGTASVVCLLNNFYPREAKVQWKVDNALQSGNSQESVTEQDSKDSTYSLSSTLTLSKADYEKHKVYACEVTHQGLSSPVTKSFNRGEC
notes: humanized, IgG1-YTE/kappa

EC50 [1]: 0.213 nM
B8: hu119-07 (antibody, human IgG1, kappa)
heavy: B2 heavy
light: B7 light with M4L
notes: humanized, IgG1-YTE/kappa

EC50 [1]: 0.174 nM
B9: hu119-11 (antibody, human IgG1, kappa, V domains shown)
VH: B1 VH
VL: DIVMTQSPDSLAVSLGERATINCRASESVDNSGLSFMHWYQQKPGQPPKLLLYRASNLGSGIPDRFSGSGSGTDFTLTISSLQAEDVAVYYCQQINTDPLTFGQGTKLEIKR
notes: humanized, IgG1-YTE/kappa

EC50 [1]: 1.02 nM
B10: hu179-08 (antibody, human IgG1, kappa)
heavy: EVQLVQSGAEVKKPGSSVKVSCKASGYTFSNYLIEWVRQAPGQGLEWIGVIDPGNGDTNYNENFKGRATLTADKSTSTAYIELSSLRSEDTAVYYCAREDNTGTAFDYWGQGTTVTVSSASTKGPSVFPLAPSSKSTSGGTAALGCLVKDYFPEPVTVSWNSGALTSGVHTFPAVLQSSGLYSLSSVVTVPSSSLGTQTYICNVNHKPSNTKVDKKVEPKSCDKTHTCPPCPAPELLGGPSVFLFPPKPKDTLYITREPEVTCVVVDVSHEDPEVKFNWYVDGVEVHNAKTKPREEQYNSTYRVVSVLTVLHQDWLNGKEYKCKVSNKALPAPIEKTISKAKGQPREPQVYTLPPSRDELTKNQVSLTCLVKGFYPSDIAVEWESNGQPENNYKTTPPVLDSDGSFFLYSKLTVDKSRWQQGNVFSCSVMHEALHNHYTQKSLSLSPGK
light: DIVMTQTPLSLSVTPGQPASISCKASQSVSSDVTWYLQKPGQSPQLLIYYVSNHYTGVPDRFSGSGSGTDFTLKISRVEAEDVGVYYCQQHHRFPLTFGQGTKLEIKRTVAAPSVFIFPPSDEQLKSGTASVVCLLNNFYPREAKVQWKVDNALQSGNSQESVTEQDSKDSTYSLSSTLTLSKADYEKHKVYACEVTHQGLSSPVTKSFNRGEC
notes: humanized, IgG1-YTE/kappa

IC50 of inhibiting the proliferation of BaF3-TLSPR/IL7R cells induced by native TSLP [2]: 0.0228 nM
IC50 of inhibiting TSLP-induced proliferation of BaF3 cells overexpressing TSLPR/IL7R [3]: 0.409 nM
B11: hu179-33 (antibody, human IgG1, kappa, V domains shown)
VH: EVQLVQSGAEVKKPGSSVKVSCKASGYTFSNYLIEWVRQAPGQGLEWIGVIDPGVGDTNYNENFKGRATLTADKSTSTAYIELSSLRSEDTAVYYCAREDNTGTAFDYWGQGTTVTVSS
VL: SIVMTQTPLSLSVTPGQPASISCKASQSVSSDVTWYLQKPGQSPQLLIYYVSEHYTGVPDRFSGSGYGTDFTLKISRVEAEDVGVYYCQQHHRFPLTFGQGTKLEIKR
